Laboratory results: PMC7783346
pKd: −log10 of the molar value. Values joined by “and” are separate entries in the source; they are usually repeats but may differ in a detail not shown here. Equal values may be shown once.

Assays:
[1] = system: His6-KfrA WT (plasmid RA3 (IncU; Aeromonas hydrophila in Fig S1/S3)); test: EMSA; conditions: EMSA: 50 mM Tris-HCl pH 8.0, 10 mM MgCl2, 50 mM NaCl, 37 C, 30 min, 10 nM EcoRI-NdeI-digested plasmid DNA (vector fragment as internal competitor), 20 ul …
[2] = system: His6-KfrA178-355 (plasmid RA3 (IncU; Aeromonas hydrophila in Fig S1/S3)); test: EMSA; conditions: EMSA: 50 mM Tris-HCl pH 8.0, 10 mM MgCl2, 50 mM NaCl, 37 C, 30 min, 10 nM EcoRI-NdeI-digested plasmid DNA (vector fragment as internal competitor), 20 ul …
[3] = biological target: KorB of plasmid RA3 fused to a CyaA fragment (BACTH) (plasmid RA3 (IncU), isolated from Aeromonas spp.); test: two-hybrid; bacterial adenylate cyclase two-hybrid (BACTH) in E. coli BTH101 cyaA; CyaA T18 and T25 fusions; MacConkey plates with 1% maltose and β-galactosidase assays in liquid cultures
[4] = biological target: IncC of plasmid RA3 fused to CyaA T25 (BACTH) (plasmid RA3 (IncU), isolated from Aeromonas spp.); test: as above
[5] = biological target: KfrA of plasmid RA3, intact, fused to a CyaA fragment (BACTH) (plasmid RA3 (IncU), isolated from Aeromonas spp.); test: as above
[6] = biological target: His6-KfrCRA3 labelled with RED-Tris-NTA (plasmid RA3 (IncU), isolated from Aeromonas spp.); test: MST; labelled His6-KfrC constant at 50 nM, KfrA from 500 nM to 0.0153 nM; 50 mM KPi pH 7.4, 300 mM NaCl, 0.05% Tween 20; measured at 37°C on Monolith NT.115; four independent experiments

WT OK (kfrAp), EcoRI-NdeI fragment of pESB2.68
K half ([1]; OK variant series): 240 nM | K half ([1]; preparation used with Ala variants): 180 nM | K half ([1]; preparation used with deletion variants, preparations ranged 0.18-0.32 uM): 320 nM | K half [2]: 1700 nM

pUC18 vector control fragment
K half [2]: 1000 nM

KfrA of plasmid RA3, intact, fused to a CyaA fragment (BACTH) (natural protein)
β-galactosidase activity [3]: 1970 U | β-galactosidase activity [4]: 136 U | β-galactosidase activity [5]: 4880 U and 5170 U

KfrC of plasmid RA3, intact, fused to a CyaA fragment (BACTH) (natural protein)
β-galactosidase activity [3]: 1010 U

KfrARA3 with the His6 tag removed (natural protein)
pKd [6]: 7.27
